# The Human Domainome abundance scans (Beltran et al. 2025)
# ± gives the uncertainty stated by the source.
# B1: Cold shock protein CspB, residues 1 to 66; numbered along this chain, P41016 (parent)
# chain: MQRGKVKWFNNEKGYGFIEVEGGSDVFVHFTAIQGEGFKTLEEGQEVSFEIVQGNRGPQAANVVKL
# Variants of: B1
# Assay: abundance fitness (aPCA) (normalised: wild type 0, dead -1); higher = more abundant; growth selection in yeast, the domain comes from the species named
# Conditions: Bacillus caldolyticus
row,Variant,abundance fitness
1,N10F,-0.132 ± 0.061
2,N10L,-0.069 ± 0.032
3,N10D,-0.086 ± 0.061
4,N10R,-0.031 ± 0.028
5,F27S,-0.212 ± 0.03
6,F27W,-0.102 ± 0.035
7,F27L,-0.187 ± 0.029
8,F27Y,0.003 ± 0.054
9,F27C,-0.243 ± 0.047
10,F27M,-0.169 ± 0.049
11,F30I,-0.087 ± 0.068
12,F30L,-0.103 ± 0.027
13,F30K,-0.016 ± 0.057
14,F30W,-0.026 ± 0.051
15,E19W,-0.011 ± 0.044
16,E19Y,-0.075 ± 0.057
17,E19L,0.019 ± 0.033
18,E19D,0.006 ± 0.072
19,E19A,0.05 ± 0.052
20,G16D,-0.927 ± 0.1
21,G16H,-1 ± 0.15
22,G16A,-0.696 ± 0.046
23,G16I,-0.911 ± 0.07
24,G16L,-0.901 ± 0.046

row,Variant,abundance fitness
1,G16K,-1.08 ± 0.15
2,G16N,-0.98 ± 0.11
3,I33E,-0.477 ± 0.041
4,I33A,-0.311 ± 0.038
5,I33Y,-0.527 ± 0.069
6,I33V,-0.024 ± 0.033
7,E42P,-0.043 ± 0.042
8,E42G,-0.001 ± 0.036
9,E42F,-0.048 ± 0.049
10,E42K,0.017 ± 0.06
11,E42T,-0.011 ± 0.052
12,E42Q,0.043 ± 0.066
13,E42D,0.004 ± 0.072
14,E42N,-0.02 ± 0.065
15,E42L,-0.006 ± 0.031
16,G57K,-0.081 ± 0.054
17,G57R,-0.089 ± 0.036
18,G57D,-0.249 ± 0.051
19,G57A,-0.145 ± 0.042
20,G57P,-0.278 ± 0.042
21,G57N,-0.223 ± 0.066
22,G57C,-0.163 ± 0.055
23,G57S,-0.093 ± 0.036
24,V52R,0.009 ± 0.032

row,Variant,abundance fitness
1,V52H,-0.033 ± 0.075
2,V52S,-0.018 ± 0.039
3,V52Y,-0.043 ± 0.092
4,V52D,-0.092 ± 0.072
5,E50K,-0.008 ± 0.066
6,E50P,-0.964 ± 0.11
7,E50G,-0.032 ± 0.032
8,E50D,0.016 ± 0.065
9,F9I,-0.272 ± 0.045
10,F9M,-0.233 ± 0.045
11,F9S,-0.408 ± 0.028
12,F9W,-0.092 ± 0.043
13,F9D,-0.881 ± 0.11
14,F9P,-0.956 ± 0.069
15,G35D,-0.004 ± 0.076
16,G35I,-0.108 ± 0.061
17,G35T,-0.084 ± 0.054
18,G35Y,-0.068 ± 0.074
19,G35S,-0.035 ± 0.039
20,G35R,-0.111 ± 0.033
21,G4K,-0.654 ± 0.041
22,G4P,-0.571 ± 0.035
23,G4Q,-0.428 ± 0.035
24,G4R,-0.537 ± 0.024

row,Variant,abundance fitness
1,G4H,-0.409 ± 0.029
2,G4W,-1.05 ± 0.067
3,E12F,0.006 ± 0.034
4,E12A,0.036 ± 0.033
5,L41M,-0.01 ± 0.04
6,L41R,-0.625 ± 0.03
7,L41C,-0.121 ± 0.054
8,L41P,-0.46 ± 0.044
9,L41G,-0.355 ± 0.034
10,Q2N,-0.026 ± 0.12
11,Q2A,-0.003 ± 0.046
12,Q2P,-0.206 ± 0.038
13,Q2H,0.027 ± 0.083
14,Q2Y,0.003 ± 0.051
15,Q2R,-0.006 ± 0.038
16,G14L,-0.24 ± 0.028
17,G14D,-0.468 ± 0.059
18,G14C,-0.13 ± 0.081
19,G14E,-0.359 ± 0.032
20,G14H,-0.047 ± 0.072
21,V63G,-0.873 ± 0.062
22,V63E,-0.782 ± 0.077
23,V63M,-0.283 ± 0.05
24,V63I,-0.126 ± 0.054

row,Variant,abundance fitness
1,V63F,-1.01 ± 0.085
2,Q59L,0.016 ± 0.025
3,Q59F,0.061 ± 0.056
4,Q59D,-0.429 ± 0.072
5,Q59N,-0.082 ± 0.092
6,Q59R,0.092 ± 0.033
7,Q59V,-0.029 ± 0.039
8,Q59T,-0.035 ± 0.042
9,Q59K,0.059 ± 0.055
10,Q59P,-0.733 ± 0.081
11,F17L,-0.171 ± 0.025
12,F17E,-0.172 ± 0.049
13,F17N,-0.171 ± 0.07
14,F17R,-0.132 ± 0.032
15,F17W,-0.084 ± 0.042
16,F38S,-0.057 ± 0.037
17,F38N,0.004 ± 0.14
18,F38C,-0.103 ± 0.058
19,F38R,-0.041 ± 0.031
20,Y15N,-0.256 ± 0.054
21,Y15Q,-0.19 ± 0.034
22,Y15W,0.023 ± 0.051
23,Y15G,-0.285 ± 0.037
24,T31Y,-0.3 ± 0.055

row,Variant,abundance fitness
1,T31V,-0.345 ± 0.043
2,T31C,-0.146 ± 0.05
3,T31D,-0.141 ± 0.11
4,T31F,-0.431 ± 0.052
5,G37M,-0.117 ± 0.034
6,G37H,-0.036 ± 0.048
7,G37S,-0.072 ± 0.034
8,K39T,-0.103 ± 0.04
9,K39H,-0.08 ± 0.064
10,K39E,-0.114 ± 0.06
11,K39W,-0.194 ± 0.048
12,K39A,-0.013 ± 0.049
13,K39R,-0.003 ± 0.037
14,V26M,-0.056 ± 0.043
15,V26S,-0.195 ± 0.029
16,V26W,-0.23 ± 0.035
17,V26D,-0.529 ± 0.06
18,F49Y,-0.037 ± 0.083
19,F49W,-0.69 ± 0.074
20,F49R,-0.968 ± 0.088
21,F49T,-0.27 ± 0.045
22,F49C,-0.021 ± 0.089
23,V64N,-0.02 ± 0.087
24,V64G,-0.042 ± 0.035

row,Variant,abundance fitness
1,V64M,-0.064 ± 0.066
2,V64K,-0.029 ± 0.068
3,S24I,-0.033 ± 0.081
4,S24V,-0.016 ± 0.039
5,S24R,0.01 ± 0.029
6,S24H,0.007 ± 0.072
7,S24K,0.015 ± 0.049
8,S24D,-0.002 ± 0.071
9,S24C,-0.029 ± 0.041
10,S24P,0.012 ± 0.057
11,A32N,-0.045 ± 0.058
12,A32M,-0.103 ± 0.048
13,A32T,-0.105 ± 0.039
14,A32Q,0.023 ± 0.055
15,A32I,-0.666 ± 0.068
16,G22F,-0.016 ± 0.06
17,G22R,-0.011 ± 0.034
18,G22I,-0.027 ± 0.059
19,G22Y,-0.063 ± 0.062
20,G22V,-0.02 ± 0.033
21,G22Q,-0.035 ± 0.058
22,T40M,-0.04 ± 0.04
23,T40F,-0.009 ± 0.055
